Measured values as given in the supplement of paper PMC10567573.

B1: VAMP4 (parent)
chain: IMALVAAILLLVIIILIVMKYRT
B2: SFRS1 (parent)
chain: YSPRRSRGSPRYSPRHSRSRSRT

Variants of: B1
Assay: protein stability index of a GFP-peptide fusion (GPS, HEK-293T) (PSI 1-6); higher = more stable
Details: c terminus: native
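Further: lentivirally expressed fusions sorted by FACS into six bins by GFP to DsRed ratio, PSI derived from sequencing read proportions per bin multiplied by bin number.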

Row | Variant | protein stability index
1 | IMALVAAILLLVIIILIVMKYRH [T23H] | 3.48
2 | IMALVAAILLLVIIILIVMKYRV [T23V] | 3.3
3 | IMALVAAILLLVIIILIVMKYRI [T23I] | 2.95
4 | IMALVAAILLLVIIILIVMKYRK [T23K] | 2.31
5 | IMALVAAILLLVIIILIVMKYRM [T23M] | 3.39
6 | IMALVAAILLLVIIILIVMKYRR [T23R] | 2.99
7 | IMALVAAILLLVIIILIVMKYRD [T23D] | 3.27
8 | IMALVAAILLLVIIILIVMKYRG [T23G] | 3.81
9 | IMALVAAILLLVIIILIVMKYRP [T23P] | 3.28
10 | IMALVAAILLLVIIILIVMKYRQ [T23Q] | 3.1
11 | IMALVAAILLLVIIILIVMKYRL [T23L] | 3.06
12 | IMALVAAILLLVIIILIVMKYRS [T23S] | 3.11
13 | IMALVAAILLLVIIILIVMKYRC [T23C] | 3.53
14 | IMALVAAILLLVIIILIVMKYRY [T23Y] | 3.37
15 | IMALVAAILLLVIIILIVMKYRW [T23W] | 3.69
16 | IMALVAAILLLVIIILIVMKYRA [T23A] | 3.69
17 | IMALVAAILLLVIIILIVMKYRF [T23F] | 3.3
18 | IMALVAAILLLVIIILIVMKYRN [T23N] | 3.18
19 | IMALVAAILLLVIIILIVMKYRE [T23E] | 2.74

Variants of: B2
Assay: as above
Details: c terminus: native

Row | Variant | protein stability index
20 | YSPRRSRGSPRYSPEHSRSRSRT [R15E] | 3.56
21 | YSPRRSRGSPRYSPLHSRSRSRT [R15L] | 3
22 | YSPRRSRGSPRYSPAHSRSRSRT [R15A] | 3.36
23 | YSPRRSRGSPRYSPPHSRSRSRT [R15P] | 2.12
24 | YSPRRSRGSPRYSPGHSRSRSRT [R15G] | 3.9
25 | YSPRRSRGSPRYSPHHSRSRSRT [R15H] | 4.39
26 | YSPRRSRGSRRYSPRHSRSRSRT [P10R] | 4.2
27 | YSPRRSRGSLRYSPRHSRSRSRT [P10L] | 3.61
28 | YSPRRSRGSGRYSPRHSRSRSRT [P10G] | 3.37
29 | YSPRRSRGSSRYSPRHSRSRSRT [P10S] | 4.35
30 | YSRRRSRGSPRYSPRHSRSRSRT [P3R] | 4.27
31 | YSARRSRGSPRYSPRHSRSRSRT [P3A] | 3.81
32 | YSSRRSRGSPRYSPRHSRSRSRT [P3S] | 4.21
33 | YSGRRSRGSPRYSPRHSRSRSRT [P3G] | 4.3
34 | YSFRRSRGSPRYSPRHSRSRSRT [P3F] | 3.91
35 | YSPFRSRGSPRYSPRHSRSRSRT [R4F] | 2.57
36 | YSPKRSRGSPRYSPRHSRSRSRT [R4K] | 3.71
37 | YSPSRSRGSPRYSPRHSRSRSRT [R4S] | 3.56
38 | YSPPRSRGSPRYSPRHSRSRSRT [R4P] | 3.36
39 | YSPMRSRGSPRYSPRHSRSRSRT [R4M] | 2.76
40 | YSPRRSRGSPRYSPRHSRSFSRT [R20F] | 2.71
41 | YSPRRSRGSPRYSPRHSRSGSRT [R20G] | 3.79
42 | YSPRRSRGSPRYSPRHSRSESRT [R20E] | 4.48
43 | YSPRRSRGSPRYSPRHSRSYSRT [R20Y] | 2.9
44 | YSPRRSRGSPRYSPRHSRSASRT [R20A] | 3.68
45 | YSPRRSRGSPRYSMRHSRSRSRT [P14M] | 3.52

Row | Variant | protein stability index
46 | YSPRRSRGSPRYSRRHSRSRSRT [P14R] | 4.48
47 | YSPRRSRGSPRYSVRHSRSRSRT [P14V] | 4.03
48 | YSPRRSRGSPRYSDRHSRSRSRT [P14D] | 3.46
49 | YSPRRSRGSPRYVPRHSRSRSRT [S13V] | 3.37
50 | YSPRRSRGSPRYLPRHSRSRSRT [S13L] | 3.89
51 | YSPRRSRGSPRYPPRHSRSRSRT [S13P] | 3.55
52 | YSPRRSRGWPRYSPRHSRSRSRT [S9W] | 2.29
53 | YSPRRSRGQPRYSPRHSRSRSRT [S9Q] | 4.24
54 | YSPRRSRGCPRYSPRHSRSRSRT [S9C] | 1.83
55 | YSPRRSRGSPRYSPRHKRSRSRT [S17K] | 4.35
56 | YSPRRSNGSPRYSPRHSRSRSRT [R7N] | 2.92
57 | YSPRRSTGSPRYSPRHSRSRSRT [R7T] | 3.13
58 | YSPRRSCGSPRYSPRHSRSRSRT [R7C] | 1.95
59 | YSPRRSRGSPRYSPRASRSRSRT [H16A] | 4.81
60 | YSPRRSRGSPRYSPRISRSRSRT [H16I] | 3.95
61 | YSPRRSRGSPRYSPRPSRSRSRT [H16P] | 4.35
62 | FSPRRSRGSPRYSPRHSRSRSRT [Y1F] | 2.96
63 | LSPRRSRGSPRYSPRHSRSRSRT [Y1L] | 3.74
64 | YSPRRSRGSPRASPRHSRSRSRT [Y12A] | 3.89
65 | YSPRRSRGSPRSSPRHSRSRSRT [Y12S] | 4.17
66 | YSPRRSRGSPRESPRHSRSRSRT [Y12E] | 4.47
67 | YSPRRSRGSPRYSPRHSRVRSRT [S19V] | 3.73
68 | YSPRRSRGSPRYSPRHSRKRSRT [S19K] | 3.88
69 | YSPRRSRGSPRYSPRHSRNRSRT [S19N] | 4.23
70 | YSPRRSRGSPRYSPRHSRLRSRT [S19L] | 3.79
71 | YSPRRSRGSPRYSPRHSRSRSET [R22E] | 4.25

Row | Variant | protein stability index
72 | YQPRRSRGSPRYSPRHSRSRSRT [S2Q] | 3.98
73 | YTPRRSRGSPRYSPRHSRSRSRT [S2T] | 3.19
74 | YNPRRSRGSPRYSPRHSRSRSRT [S2N] | 3.54
75 | YMPRRSRGSPRYSPRHSRSRSRT [S2M] | 3.77
76 | YEPRRSRGSPRYSPRHSRSRSRT [S2E] | 4.12
77 | YLPRRSRGSPRYSPRHSRSRSRT [S2L] | 4.2
78 | YSPRRSRGSPRYSPRHSRSRNRT [S21N] | 3.98
79 | YSPRRSRGSPVYSPRHSRSRSRT [R11V] | 3.05
80 | YSPRRSRGSPHYSPRHSRSRSRT [R11H] | 3.22
81 | YSPRRSRNSPRYSPRHSRSRSRT [G8N] | 3.7
82 | YSPRRSRMSPRYSPRHSRSRSRT [G8M] | 3.19
83 | YSPRRSRSSPRYSPRHSRSRSRT [G8S] | 4.32
84 | YSPRRSRASPRYSPRHSRSRSRT [G8A] | 4.22
85 | YSPRRSRRSPRYSPRHSRSRSRT [G8R] | 4.58
86 | YSPRRSRTSPRYSPRHSRSRSRT [G8T] | 3.79
87 | YSPRISRGSPRYSPRHSRSRSRT [R5I] | 2.33
88 | YSPRSSRGSPRYSPRHSRSRSRT [R5S] | 3.76
89 | YSPRRSRGSPRYSPRHSFSRSRT [R18F] | 2.42
90 | YSPRRSRGSPRYSPRHSNSRSRT [R18N] | 3.5
91 | YSPRRPRGSPRYSPRHSRSRSRT [S6P] | 4.39
92 | YSPRRGRGSPRYSPRHSRSRSRT [S6G] | 3.55
93 | YSPRRMRGSPRYSPRHSRSRSRT [S6M] | 3.56
94 | YSPRRYRGSPRYSPRHSRSRSRT [S6Y] | 3.29
95 | YSPRRNRGSPRYSPRHSRSRSRT [S6N] | 3.97
96 | YSPRRSRGSPRYSPRHSRSRSRE [T23E] | 4.56
97 | YSPRRSRGSPRYSPRHSRSRSRV [T23V] | 3.69
